{"source": "paper PMC8971729", "about": "(Molecular Therapy Oncolytics, 2022)", "binders": {"B1": {"name": "HAdV-C5 fiber knob protein (domain or fragment)", "chain": "KNNDKLTLWTTPAPSPNCRLNAEKDAKLTLVLTKCGSQILATVSVLAVKGSLAPISGTVQSAHLIIRFDENGVLLNNSFLDPEYWNFRNGDLTEGTAYTNAVGFMPNLSAYPKSHGKTAKSNIVSQVYLNGDKTKPVTLTITLNGTQETGDTTPSAYSMSFSWDWSGHNYINEIFATSSYTFSYIAQE", "notes": "source: supplemental methods"}}, "biological_target": "T1, human CXADR Fc chimera protein (CAR) (human, UniProt P78310)", "T1 construct": "also called coxsackievirus and adenovirus receptor; source: bought: R&D Systems", "T1 sequence": "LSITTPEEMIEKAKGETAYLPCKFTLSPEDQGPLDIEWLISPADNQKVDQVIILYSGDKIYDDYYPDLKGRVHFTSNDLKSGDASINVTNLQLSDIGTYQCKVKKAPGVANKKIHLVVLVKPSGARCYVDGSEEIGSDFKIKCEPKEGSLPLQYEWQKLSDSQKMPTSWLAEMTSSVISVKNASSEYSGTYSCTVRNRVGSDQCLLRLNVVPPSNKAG", "assay": "SPR; BIAcore 3000; DSG2-Fc, CAR-Fc and CD46-His (approximately 500 RU) coupled to a CM5 chip; knob protein injected (178 uM, 5x 1:3 dilutions; single-cycle kinetics from 200 uM); 30 uL/min, PBS, 25 °C; equilibrium KD assuming 1:1 Langmuir binding", "details": "both partners purified"}
{"binder": "B1", "values": [{"measurement": "Kd", "result": 760, "unit": "pM"}]}
